Values quoted from earlier work in PMC5423825.

Target: CFluc398 (FGG-tagged C-terminal firefly luciferase fragment) CFluc398 (Photinus pyralis) [luciferase: P08659]

Kd: 112 µM
Substance: NFluc437 (FGG-tagged N-terminal firefly luciferase fragment) NFluc437 (from UniProt P08659)
